For orientation: Kd means a measure of binding affinity in units of concentration. A lower Kd goes with higher affinity. A word on the stoichiometry N: it is a count of units in the complex or per binding partner.

For test [1], the target named is DH475 Fab, heavy chain N31A (human). The test is described as follows: BLI; BLItz; Fab (0.2 mg/mL) immobilised on Anti-Human Fab-CH1 2nd Generation (FAB2G) biosensors, Env constructs titrated; 2.5 mM Tris pH 7.5, 350 mM NaCl; global fit. On the technique in general: Biolayer interferometry detects binding as a change in optical thickness at a sensor tip.
The target in test [2] is DH475 Fab, heavy chain N30A (human). The description is as above.
Test [3] deals with DH475 Fab, heavy chain D77A (human). Described as above.
Test [4] has as its target DH475 Fab, heavy chain W104A (human). The test is described as above.
For test [5], the target named is CH848 TF DS SOSIP Env trimer (HIV-1 (donor CH848, transmitted/founder)). The test is described as follows: ITC; 157 uM DH272.2 injected into a cell with 7.59 uM CH848 TF DS SOSIP Env; single site model. For orientation: In ITC the heat of successive injections is recorded.

Sequence of DH475 Fab, heavy chain N30A (human) (heavy, as listed by the source, chain 1 of 2): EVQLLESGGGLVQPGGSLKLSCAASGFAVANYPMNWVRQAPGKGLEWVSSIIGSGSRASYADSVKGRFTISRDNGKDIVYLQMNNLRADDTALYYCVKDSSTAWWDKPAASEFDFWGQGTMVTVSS
Sequence of DH475 Fab, heavy chain N30A (human) (light, as listed by the source, chain 2 of 2): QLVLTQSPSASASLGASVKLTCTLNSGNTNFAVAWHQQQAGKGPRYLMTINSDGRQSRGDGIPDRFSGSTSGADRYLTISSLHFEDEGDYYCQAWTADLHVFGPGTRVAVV
Sequence of DH475 Fab, heavy chain D77A (human) (heavy, as listed by the source, chain 1 of 2): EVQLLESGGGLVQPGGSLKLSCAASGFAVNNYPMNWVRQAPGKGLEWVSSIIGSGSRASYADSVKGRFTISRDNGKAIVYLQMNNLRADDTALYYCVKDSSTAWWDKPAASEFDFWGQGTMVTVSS
Sequence of DH475 Fab, heavy chain D77A (human) (light, as listed by the source, chain 2 of 2): as the sequence (light, as listed by the source, chain 2 of 2) above
Sequence of DH475 Fab, heavy chain N31A (human) (heavy, as listed by the source, chain 1 of 2): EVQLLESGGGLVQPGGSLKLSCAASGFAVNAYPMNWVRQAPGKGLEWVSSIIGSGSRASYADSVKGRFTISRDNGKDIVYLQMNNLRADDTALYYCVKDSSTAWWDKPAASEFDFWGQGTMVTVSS
Sequence of DH475 Fab, heavy chain N31A (human) (light, as listed by the source, chain 2 of 2): as the sequence (light, as listed by the source, chain 2 of 2) above
Sequence of DH475 Fab, heavy chain W104A (human) (heavy, as listed by the source, chain 1 of 2): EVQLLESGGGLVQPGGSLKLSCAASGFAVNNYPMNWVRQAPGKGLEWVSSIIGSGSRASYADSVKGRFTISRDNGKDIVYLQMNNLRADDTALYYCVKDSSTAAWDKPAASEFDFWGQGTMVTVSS
Sequence of DH475 Fab, heavy chain W104A (human) (light, as listed by the source, chain 2 of 2): as the sequence (light, as listed by the source, chain 2 of 2) above

“CH848 transmitted/founder (TF) gp120 core (domain or fragment)”: the Kd in test [1], in test [2], in test [3] and in test [4] was over 50 µM each time.

B1: DH272.2 Fab (Fab, V domains shown)
VH: QVQLVQSGAEVKKPGASVKVSCQASGYRVSDHFVNWMRQAPGQRLEWIGWFNPDSRDTHYADKFKGRVTSTKIGNTVYMQLSSLRSDDTAVYYCARERYDFHSGLEGSFDFWGQGTLVTV
VL: DIVMTQSPLSLPVTLGQPASISCRSSQSLVHNYGNTYLNWFQQRPGQSPRRLIYKVSGRDSGVPDRFSGGGSGTDFTLKISSVEAEDVGVYYCMQGTHWPRTFGQGTKLEIN
B1 gave a stoichiometry N in test [5] of 3.

(Values after article PMC9548623.)
